In US20220204602A1 (published 2022):
“And” between values parts separate entries of the source, which are not always exact repeats. Identical values can stand only once.

T1: Cyno FcRn (Cynomolgus, UniProt Q8SPV9 24-297; Q8SPW0 21-119)
T1 chain 1: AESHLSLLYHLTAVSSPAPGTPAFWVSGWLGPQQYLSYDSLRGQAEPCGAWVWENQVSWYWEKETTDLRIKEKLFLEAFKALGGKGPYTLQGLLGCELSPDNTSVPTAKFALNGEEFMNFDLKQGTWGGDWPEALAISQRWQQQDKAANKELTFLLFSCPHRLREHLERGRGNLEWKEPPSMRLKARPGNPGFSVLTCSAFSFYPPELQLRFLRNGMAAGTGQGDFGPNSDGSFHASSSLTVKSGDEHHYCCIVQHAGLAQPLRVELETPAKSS
T1 chain 2: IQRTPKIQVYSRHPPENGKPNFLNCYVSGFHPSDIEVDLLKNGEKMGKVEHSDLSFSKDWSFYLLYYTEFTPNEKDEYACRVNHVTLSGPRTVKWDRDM


Assays:
Cyno FcRn = biological target: T1, Cyno FcRn; test: SPR (Biacore); pH 6.0
human complement C5 [1] = biological target: T2, human complement C5 (human, UniProt P01031 19-673; P01031 678-1676); test: competition ELISA; pH 7.4
human complement C5 [2] = biological target: T2, human complement C5; test: competition ELISA; pH 6.0

Binder	Ka (Cyno FcRn) [M⁻¹]	EC50 (human complement C5 [1])	EC50 (human complement C5 [2]) [µg/mL]
anti-C5 mAb FMEH-IgG4PLA (antibody) heavy: not shown light: DIQLTQSPSFLSASVGDRVTITCRTSKSISKHLAWYQQKPGKAPKLLIYSGSTLQSGVPSRFSGSGSGTEFTLTISSLQPEDFATYYCQQHNEYPYTFGQGTKLEIK	7.13e+07		
parental mAb H1-8/L1-9 ScFV (scFv) MDWTWVFLFLLSVTAGVHSQVQLVQSGAEVKKPGASVKVSCKASGYTITDYHLDWVRQAPGQGLEWMGDISPNYGYTIYNQKFKDRVTMTTDTSTSTAYMELRSLRSDDTAVYYCARRDIRYSGNSYKWYFDVWGQGTMVTVSSMEAPAQLLFLLLLWLPDTTGDIQLTQSPSFLSASVGDRVTITCRTSKSISKHLAWYQQKPGKAPKLLIYSGSTLQSGVPSRFSGSGSGTEFTLTISSLQPEDFATYYCQQHNEYPYTFGQGTKLEIK		2.08 µg/mL and 1.62 µg/mL and 2.33 µg/mL	
scFV mutant clone 14C6 from mAb 1819 affinity maturation (T to H mutation in position 9 of VH CDR2) (scFv) MDWTWVFLFLLSVTAGVHSQVQLVQSGAEVKKPGASVKVSCKASGYTITDYHLDWVRQAPGQGLEWMGDISPNYGYTIYNQKFKDRVTMTTDTSTSTAYMELRSLRSDDTAVYYCARRDIRYSGNSYKWYFDVWGQGTMVTVSSMEAPAQLLFLLLLWLPDTTGDIQLTQSPSFLSASVGDRVTITCRTSKSISKHLAWYQQKPGKAPKLLIYSGSTLQSGVPSRFSGSGSGTEFTLTISSLQPEDFATYYCQQHNEYPYTFGQGTKLEIK		0.404 µg/mL	4.97
